Assay results published in the supplement of paper PMC11316812.
± gives the standard deviation of the averaged measurements.

Columns and labels:
hTERT-HMEC = assay: percentage of EdU-negative (G0-arrested) nuclei per well, 72 h; higher = more G0 arrest; settings: reference: sequence is the full UniProt precursor, the tested protein was the secreted form or ectodomain
MCF7 = assay: as above; settings: reference: sequence is the full UniProt precursor, the tested protein was the secreted form or ectodomain
[1] = protein concentration 0.0117143 µM
[2] = protein concentration 0.117143 µM
[3] = protein concentration 0.0225 µM
[4] = protein concentration 0.0075 µM
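Further: secreted proteins added to cultured cells, EdU pulse at the end, nuclei found by Hoechst imaging, EdU status from nuclear versus surrounding ring intensity ratio, PBS as neutral control.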

Row | Sequence | percentage of EdU-negative (hTERT-HMEC; [3]) | percentage of EdU-negative (hTERT-HMEC; protein concentration 0.225 µM) | percentage of EdU-negative (MCF7; [3]) | percentage of EdU-negative (MCF7; protein concentration 0.225 µM) | also measured
1 | MKMMLVRRFRVLILMVFLVACALHIALDLLPRLERRGARPSGEPGCSCAQPAAEVAAPGWAQVRGRPGEPPAASSAAGDAGWPNKHTLRILQDFSSDPSSNLSSHSLEKLPPAAEPAERALRGRDPGALRPHDPAHRPLLRDPGPRRSESPPGPGGDASLLARLFEHPLYRVAVPPLTEEDVLFNVNSDTRLSPKAAENPDWPHAGAEGAEFLSPGEAAVDSYPNWLKFHIGINRYELYSRHNPAIEALLHDLSSQRITSVAMKSGGTQLKLIMTFQNYGQALFKPMKQTREQETPPDFFYFSDYERHNAEIAAFHLDRILDFRRVPPVAGRMVNMTKEIRDVTRDKKLWRTFFISPANNICFYGECSYYCSTEHALCGKPDQIEGSLAAFLPDLSLAKRKTWRNPWRRSYHKRKKAEWEVDPDYCEEVKQTPPYDSSHRILDVMDMTIFDFLMGNMDRHHYETFEKFGNETFIIHLDNGRGFGKYSHDELSILVPLQQCCRIRKSTYLRLQLLAKEEYKLSLLMAESLRGDQVAPVLYQPHLEALDRRLRVVLKAVRDCVERNGLHSVVDDDLDTEHRAASAR [Q8IXL6] | – | – | – | – | percentage of EdU-negative (hTERT-HMEC; [1]): 5.97 ± 0.7%; percentage of EdU-negative (hTERT-HMEC; [2]): 6.51 ± 0.12%; percentage of EdU-negative (MCF7; [1]): 23.5 ± 2.4%; percentage of EdU-negative (MCF7; [2]): 24.2 ± 0.32%
2 | MKMRFLGLVVCLVLWTLHSEGSGGKLTAVDPETNMNVSEIISYWGFPSEEYLVETEDGYILCLNRIPHGRKNHSDKGPKPVVFLQHGLLADSSNWVTNLANSSLGFILADAGFDVWMGNSRGNTWSRKHKTLSVSQDEFWAFSYDEMAKYDLPASINFILNKTGQEQVYYVGHSQGTTIGFIAFSQIPELAKRIKMFFALGPVASVAFCTSPMAKLGRLPDHLIKDLFGDKEFLPQSAFLKWLGTHVCTHVILKELCGNLCFLLCGFNERNLNMSRVDVYTTHSPAGTSVQNMLHWSQAVKFQKFQAFDWGSSAKNYFHYNQSYPPTYNVKDMLVPTAVWSGGHDWLADVYDVNILLTQITNLVFHESIPEWEHLDFIWGLDAPWRLYNKIINLMRKYQ | 4.11 ± 0.31% | 5.43 ± 0.3% | 25.12 ± 0.15% | 27.7 ± 0.37% | –
3 | MKMRRYKLFLMFCMAGLCLISFLHFFKTLSYVTFPRELASLSPNLVSSFFWNNAPVTPQASPEPGGPDLLRTPLYSHSPLLQPLPPSKAAEELHRVDLVLPEDTTEYFVRTKAGGVCFKPGTKMLERPPPGRPEEKPEGANGSSARRPPRYLLSARERTGGRGARRKWVECVCLPGWHGPSCGVPTVVQYSNLPTKERLVPREVPRRVINAINVNHEFDLLDVRFHELGDVVDAFVVCESNFTAYGEPRPLKFREMLTNGTFEYIRHKVLYVFLDHFPPGGRQDGWIADDYLRTFLTQDGVSRLRNLRPDDVFIIDDADEIPARDGVLFLKLYDGWTEPFAFHMRKSLYGFFWKQPGTLEVVSGCTVDMLQAVYGLDGIRLRRRQYYTMPNFRQYENRTGHILVQWSLGSPLHFAGWHCSWCFTPEGIYFKLVSAQNGDFPRWGDYEDKRDLNYIRGLIRTGGWFDGTQQEYPPADPSEHMYAPKYLLKNYDRFHYLLDNPYQEPRSTAAGGWRHRGPEGRPPARGKLDEAEV | – | – | – | – | percentage of EdU-negative (hTERT-HMEC; [4]): 5.484 ± 0.037%; percentage of EdU-negative (hTERT-HMEC; protein concentration 0.075 µM): 8.45 ± 1.1%; percentage of EdU-negative (MCF7; [4]): 24.8 ± 2.6%; percentage of EdU-negative (MCF7; protein concentration 0.075 µM): 29.1 ± 1.5%
4 | MKMWLLVSHLVIISITTCLAEFTWYRRYGHGVSEEDKGFGPIFEEQPINTIYPEESLEGKVSLNCRARASPFPVYKWRMNNGDVDLTSDRYSMVGGNLVINNPDKQKDAGIYYCLASNNYGMVRSTEATLSFGYLDPFPPEERPEVRVKEGKGMVLLCDPPYHFPDDLSYRWLLNEFPVFITMDKRRFVSQTNGNLYIANVEASDKGNYSCFVSSPSITKSVFSKFIPLIPIPERTTKPYPADIVVQFKDVYALMGQNVTLECFALGNPVPDIRWRKVLEPMPSTAEISTSGAVLKIFNIQLEDEGIYECEAENIRGKDKHQARIYVQAFPEWVEHINDTEVDIGSDLYWPCVATGKPIPTIRWLKNGYAYHKGELRLYDVTFENAGMYQCIAENTYGAIYANAELKILALAPTFEMNPMKKKILAAKGGRVIIECKPKAAPKPKFSWSKGTEWLVNSSRILIWEDGSLEINNITRNDGGIYTCFAENNRGKANSTGTLVITDPTRIILAPINADITVGENATMQCAASFDPALDLTFVWSFNGYVIDFNKENIHYQRNFMLDSNGELLIRNAQLKHAGRYTCTAQTIVDNSSASADLVVRGPPGPPGGLRIEDIRATSVALTWSRGSDNHSPISKYTIQTKTILSDDWKDAKTDPPIIEGNMEAARAVDLIPWMEYEFRVVATNTLGRGEPSIPSNRIKTDGAAPNVAPSDVGGGGGRNRELTITWAPLSREYHYGNNFGYIVAFKPFDGEEWKKVTVTNPDTGRYVHKDETMSPSTAFQVKVKAFNNKGDGPYSLVAVINSAQDAPSEAPTEVGVKVLSSSEISVHWEHVLEKIVESYQIRYWAAHDKEEAANRVQVTSQEYSARLENLLPDTQYFIEVGACNSAGCGPPSDMIEAFTKKAPPSQPPRIISSVRSGSRYIITWDHVVALSNESTVTGYKVLYRPDGQHDGKLYSTHKHSIEVPIPRDGEYVVEVRAHSDGGDGVVSQVKISGAPTLSPSLLGLLLPAFGILVYLEF | 5.11 ± 0.28% | 5.87 ± 0.46% | 24.5 ± 1.2% | 26.2 ± 0.55% | –
5 | MKPAAREARLPPRSPGLRWALPLLLLLLRLGQILCAGGTPSPIPDPSVATVATGENGITQISSTAESFHKQNGTGTPQVETNTSEDGESSGANDSLRTPEQGSNGTDGASQKTPSSTGPSPVFDIKAVSISPTNVILTWKSNDTAASEYKYVVKHKMENEKTITVVHQPWCNITGLRPATSYVFSITPGIGNETWGDPRVIKVITEPIPVSDLRVALTGVRKAALSWSNGNGTASCRVLLESIGSHEELTQDSRLQVNISGLKPGVQYNINPYLLQSNKTKGDPLGTEGGLDASNTERSRAGSPTAPVHDESLVGPVDPSSGQQSRDTEVLLVGLEPGTRYNATVYSQAANGTEGQPQAIEFRTNAIQVFDVTAVNISATSLTLIWKVSDNESSSNYTYKIHVAGETDSSNLNVSEPRAVIPGLRSSTFYNITVCPVLGDIEGTPGFLQVHTPPVPVSDFRVTVVSTTEIGLAWSSHDAESFQMHITQEGAGNSRVEITTNQSIIIGGLFPGTKYCFEIVPKGPNGTEGASRTVCNRTVPSAVFDIHVVYVTTTEMWLDWKSPDGASEYVYHLVIESKHGSNHTSTYDKAITLQGLIPGTLYNITISPEVDHVWGDPNSTAQYTRPSNVSNIDVSTNTTAATLSWQNFDDASPTYSYCLLIEKAGNSSNATQVVTDIGITDATVTELIPGSSYTVEIFAQVGDGIKSLEPGRKSFCTDPASMASFDCEVVPKEPALVLKWTCPPGANAGFELEVSSGAWNNATHLESCSSENGTEYRTEVTYLNFSTSYNISITTVSCGKMAAPTRNTCTTGITDPPPPDGSPNITSVSHNSVKVKFSGFEASHGPIKAYAVILTTGEAGHPSADVLKYTYEDFKKGASDTYVTYLIRTEEKGRSQSLSEVLKYEIDVGNESTTLGYYNGKLEPLGSYRACVAGFTNITFHPQNKGLIDGAESYVSFSRYSDAVSLPQDPGVICGAVFGCIFGALVIVTVGGFIFWRKKRKDAKNNEVSFSQIKPKKSKLIRVENFEAYFKKQQADSNCGFAEEYEDLKLVGISQPKYAAELAENRGKNRYNNVLPYDISRVKLSVQTHSTDDYINANYMPGYHSKKDFIATQGPLPNTLKDFWRMVWEKNVYAIIMLTKCVEQGRTKCEEYWPSKQAQDYGDITVAMTSEIVLPEWTIRDFTVKNIQTSESHPLRQFHFTSWPDHGVPDTTDLLINFRYLVRDYMKQSPPESPILVHCSAGVGRTGTFIAIDRLIYQIENENTVDVYGIVYDLRMHRPLMVQTEDQYVFLNQCVLDIVRSQKDSKVDLIYQNTTAMTIYENLAPVTTFGKTNGYIA | 5.56 ± 1.9% | 5.79 ± 0.53% | 23.2 ± 1.6% | 22.4 ± 0.63% | –
6 | MKPALLEVMRMNRICRMVLATCLGSFILVIFYFQSMLHPVMRRNPFGVDICCRKGSRSPLQELYNPIQLELSNTAVLHQMRRDQVTDTCRANSATSRKRRVLTPNDLKHLVVDEDHELIYCYVPKVACTNWKRLMMVLTGRGKYSDPMEIPANEAHVSANLKTLNQYSIPEINHRLKSYMKFLFVREPFERLVSAYRNKFTQKYNISFHKRYGTKIIKRQRKNATQEALRKGDDVKFEEFVAYLIDPHTQREEPFNEHWQTVYSLCHPCHIHYDLVGKYETLEEDSNYVLQLAGVGSYLKFPTYAKSTRTTDEMTTEFFQNISSEHQTQLYEVYKLDFLMFNYSVPSYLKLE [Q9NPF2] | 5.07 ± 0.051% | 18.8 ± 3% | 23.2 ± 1.9% | 24.6 ± 1.8% | –
